Assay results as given in patent US20180230213A1 (AVEO PHARMACEUTICALS, published 2018).

Molecular target: T1, rhNotch1-Fc (human, UniProt P46531 19-526)
T1 construct: also called human Notch1 protein; R&D Cat. No. 3647-TK-050
Experiment: BLI (Octet QK): rhNotch1-Fc loaded on anti-human-Fc sensors, then antibody 4F11 in solution
Experimental: Antibody 4F11 was tested for binding to human Notch1, human Notch2, or human Notch3 proteins. Binding measurements were made by biolayer interferometry (BLI), using a FortéBio Octet® QK instrument (FortéBio, Menlo Park, Calif.). Anti-human-Fc sensors were soaked in PBS containing 1 mg/ml BSA for five minutes prior to binding of antibodies. Then the following proteins (400 nM, in PBS containing 1 mg/ml BSA) were allowed to bind to the sensors: rhNotch1-Fc (R&D Systems, Minneapolis, Minn.; Cat. No. 3647-TK-050), rhNotch2-Fc (R&D Cat. No. 3735-NT-050), rhNotch3-Fc (R&D Cat. No. 1559-NT-050), or rmNotch3-Fc (R&D Cat. No. 1308-NT-050). Notch protein bound sensors were immersed in antibody solution (50 μg/ml) to allow binding of antibody to the Notch protein. Binding was detected by shifts in the interference pattern.

B1: antibody 4F11 (murine monoclonal anti-human Notch3) (antibody, mouse IgG1, kappa, V domains shown)
VH: EVQLVESGGGLVKPGGSLKLSCAASGFAFSSYDMSWVRQTPEKRLEWVAYISRGGGSTYYPDTVKGRFTISRDNAKNTLYLQMSSLKSEDTAMYYCGRHATTAYWYFDVWGAGTTVTVSS
VL: DVVMTQTPLSLPVSLGDQASISCRSSQSLVHTNGNTYLHWYLQKPGQSPKLLIYKVSNRFSGVPDRFSGSGSGTDFTLKISRVEAEDLGVYFCSQSTHVPWTFGGGTKLEIKR
notes: Mouse IgG1 kappa purified from hybridoma; also called mu4F11; murine 4F11
binding result: no binding
